Results reported in publication PMC12583524 (Nature Communications, 2025).

Columns and labels:
[1] = target: recombinant CHIKV E1–E2 fusion protein (Chikungunya virus, sequence as …); experiment: SPR
[2] = target: T1, CHIKV VLP (strain 119067) (Chikungunya virus, strain 119067, UniProt A0A1I9WLN7); experiment: cryo-EM structure
[3] = target: T1, CHIKV VLP (strain 119067); experiment: dynamic light scattering

Binder | Kd [1] | binding result [2] | binding result [3]
C34 Fab (papain digestion of the mAb) (Fab, V domains shown) VH: EVQLVESGGGLVQPGRSLRLSCAASGFTFDDYAMHWVRQAPGKGLEWVSGISWNSGSIGYADSVKGRFTISRDNAKNSLYLQMNSLRAEDTALYYCAKDMGYSGNDDYYGMDVWGQGTTVTVSS VL: DIQLTQSPSSLSASVGDRVTITCRASQRISSYLNWYQQKPGKAPKLLIYGAFSLQSGVPSRFSGSGSGTDFTLTISSLQPEDFATYYCQQSYRTLTRTFGQGTKVEIK | < 1 nM | – | –
C37 Fab (papain digestion of the mAb) (Fab, V domains shown) VH: QVQLQESGPGLVKPSETLSLTCTVSGGSIGSSSYYWGWIRQPPGKGLQWIGSFHYSGTTYYNPSLKSRVTISVDTSKNHFSLKLSSVTAADTAVYYCASRQNWNDGYFDYWGQGTLVTVSS VL: DIQMTQSPATLSLSPGERATLFCRASQSVSSSLAWYQQKPGQAPRLLIYDASNRATGIPARFSGSGSGTDFTLTISSLEPEDFAVYYCQQRGNWPPITFGQGTRLDTK | < 1 nM | – | –
C34 Fab (recombinant, His-tag on the heavy chain) (Fab, V domains shown) VH: EVQLVESGGGLVQPGRSLRLSCAASGFTFDDYAMHWVRQAPGKGLEWVSGISWNSGSIGYADSVKGRFTISRDNAKNSLYLQMNSLRAEDTALYYCAKDMGYSGNDDYYGMDVWGQGTTVTVSS VL: DIQLTQSPSSLSASVGDRVTITCRASQRISSYLNWYQQKPGKAPKLLIYGAFSLQSGVPSRFSGSGSGTDFTLTISSLQPEDFATYYCQQSYRTLTRTFGQGTKVEIK | – | binds | –
C37 Fab (recombinant, His-tag on the heavy chain) (Fab, V domains shown) VH: QVQLQESGPGLVKPSETLSLTCTVSGGSIGSSSYYWGWIRQPPGKGLQWIGSFHYSGTTYYNPSLKSRVTISVDTSKNHFSLKLSSVTAADTAVYYCASRQNWNDGYFDYWGQGTLVTVSS VL: DIQMTQSPATLSLSPGERATLFCRASQSVSSSLAWYQQKPGQAPRLLIYDASNRATGIPARFSGSGSGTDFTLTISSLEPEDFAVYYCQQRGNWPPITFGQGTRLDTK | – | binds | –
C34 IgG (antibody, V domains shown) VH: EVQLVESGGGLVQPGRSLRLSCAASGFTFDDYAMHWVRQAPGKGLEWVSGISWNSGSIGYADSVKGRFTISRDNAKNSLYLQMNSLRAEDTALYYCAKDMGYSGNDDYYGMDVWGQGTTVTVSS VL: DIQLTQSPSSLSASVGDRVTITCRASQRISSYLNWYQQKPGKAPKLLIYGAFSLQSGVPSRFSGSGSGTDFTLTISSLQPEDFATYYCQQSYRTLTRTFGQGTKVEIK | – | – | binds
C37 IgG (antibody, V domains shown) VH: QVQLQESGPGLVKPSETLSLTCTVSGGSIGSSSYYWGWIRQPPGKGLQWIGSFHYSGTTYYNPSLKSRVTISVDTSKNHFSLKLSSVTAADTAVYYCASRQNWNDGYFDYWGQGTLVTVSS VL: DIQMTQSPATLSLSPGERATLFCRASQSVSSSLAWYQQKPGQAPRLLIYDASNRATGIPARFSGSGSGTDFTLTISSLEPEDFAVYYCQQRGNWPPITFGQGTRLDTK | – | – | binds
